In a protein production outcome set (Wang et al. 2014) one finds protein production data, which are given here for 22 sequences.

The nature of this data set: label from the status in PepcDB records.
On to “AADPVVVPANMEPLTIEGNRFVTLCIMIRTTPWEVSRDVKLHPRDEVDWHTLEGVRALREAFATNNPNGRLTWGFTMNALEDGRKNYREIRDYVVECQKKYGDEVTYFPGYFPAMYLPRERVNREMSEAIEIISKMVGNGYRPQSIMGGFLSADNLRYLAEKENIHVAHAVIWSQHNIDGGGADGSPSYPFYPSTEHFCKPAQGKSDFIDCVNLDGWTMDFICARRSGQTGHGIDGYNSRRGVGPIETYKGWGLDLGHREVMHTEAIHFDKGLELNGFGWVANIWEAQMVHEFGKDLICDAMKMWVTGTKERWPDTHFVTFGEFGELWRKQYKSNDDWNYRFVERGSGLGDSYNNLEIKWFMNKEFRLALLRDWHTKNSPAYVIDFTRYDLQAHEPADPSPEKPAKDWSLINKINQKALRPQDKPVLIDKLEKEDQDLIRKYYPELLK”, for which the protein production result is given as “not failed”.
Turning to “AAGIDQYALKEFTADFTQFHIGDTVPAMYLTPEYNIKQWQQRNLPAPDAGSHWTYMGGNYVLITDTEGKILKVYDGEIFYHR”, the protein production result was “not failed”.
“AAGSENTNYFISLEQGEFVLTLVERGPVQEMPFFIELLDVLHDANLPVPYALRTTDGQALRELAGKPALLQPRLPGKHISEPNTQHCVQIGELLANLHLATREQVLERKTDRGLDWMLSEGRNFLSHLGETQRALLEKSLQEIEDLKPQIMALPRANLHADLFRDNVLFEGTHLTGLIDFYNACSGPMLYDLAIALNDWCSRENG”: the protein production entry was “failed”.
For “AAKGNMQCNIFVPAGTSKGKTTQTRLYGANCIEVEGTREDVALAAIESSVTHGSHYVGHNWHPLFIEGVKSIAYEIWEQCGYKAPDNFVVPAGNGSLLAGAYIGFSELLKGGEISKLPRLFGIQSESIQPFVQTFNNKEINITSEDTIAEGIKIKRSSRMNEIVQFVKETNGNFISVNEQQIQSALKEMGAQGYFIEPTSATAFAGIAQLIKTQEIKPDELTVGVVTGNGLKATNSIEHLI”, the protein production entry is “failed”.
To “AATDIHVHFRTPGETEKEDFGSGSLSAIYGGTTYVMDMPNNRFPITDYNAFGDKLGSIDSTSFADFSLYSMETGKNAMLLDRRSIGLKVYLGGSTNSTGTEVIEEGDIRKINEMNYPVVFHGESERCLKTHQMEEKNLRDHNLARPIDCEIEAAKYVSGLDIKTKIMAHVSSPDVTGNFLREVTPHHLLLNDEMPLGSFGKVNPPLRDSRTQKRLLDDYISGKFDILSSDHAPHTEDDKREFEFAKSGIIGVETRVPLFLALAQKKIVPLDVLYRTAIENPPSIFGIKKGKIEIGYDADFMVIDFTSMKRINDNRLHSKFPVSPFNGMDAI” belongs “failed”; to “ACDNDTEPGGTAVEKMAGDWWVTVNAFIDGKEVEDPFGAGHLQMSTYNTASNSETEMWLDDLGNFWEYKLKVNVNYAARTFSTTGFVDNVTYESKVKITDGKVLEKAATTPSGMPADSIVYMVQFDDDEDGLTYKVSGFRRTGFPADDF”, “not failed”; to “ACTQPSDWVPPAKNDALVIALKKVIGGRLSDAFHIRDKLQRRDAIAAVKDDVIQQLAGRLEVEGWNLAELLKEFGELEYRTMRDALLDTKVRIDGRSLEAVRP”, “not failed”.
In the case of “ADDFAMEMGLACVVCRQMTVASGNQLVECQECHNLYHQDCHKPQVTDKEVNXPSRGVVLCPGTRQMKRMAQKNQK” it was “not failed”; in that of “ADELVMSNLHSKENYDKYSEPRGYPKGERSLNFEELKDWGPKNVIKMSTPAVNKMPHSFANLPLRFGRNVQEERSAGATANLPLRSGRNMEVSLVRRVPNLPQRFGRTTTAKSVCRMLSDLCQGSMHSPCANDLFYSMTCQHQEIQNPDQKQSRRLLFKKIDDAELKQEK”, “failed”; in that of “ADLGRKITSALRSLSNATIINEEVLNAMLKEVCTALLEADVNIKLVKQLRENVKSAIDLEEMASGLNKRKMIQHAVFKELVKVKVY”, “not failed”.
In the case of “ADNRAKKHGHADLSIYREWVDEHPTVFTGYDELTTDSKVLGLLSAGNKVNEIKAGEEVEVILEASPLYAEAGGQLGDRGQILMGDTVLKVNDVQKIGKKLWVHKATVAQGGLSVGDVVTAQVDSDWRHAARQAHTGTHLIHAALRQVLGPTAVQAGSMNKPGYLRFDFNYTESLTPRQLEEIQNITNQAVDSDWDVNTIETSLEEAKAMGALALFGENYGSEVRVIEVGGPFSIELCGGTHVTHSSQIGPVAILGESSVGSGVRRIEAYTGLDSFKYLAKEQALVENIASSMKVKPEELPDRIAALTQKLKDAEKAIADMRSAQLMAQATGLVAGAIEVNGVKLVAQRVSDVENMGDLRSLAADIKQRLDDVPAVVALVGEDASGKAPFVVGATKAAVSAGYKANAYAKILGQYIEGNGGGKPDMAQGSARNSSGFDQGIAAVKAEMSA” it was “failed”; in that of “AEDNLGPLPENWEMAYTENGEVYFIDHNTKTTSWLDPRCLNKQQ”, “not failed”.
As to “AELQMLLEEEIPSGKRALIESYQNLTRVADYCENNYIQATDKRKALEETKAYTTQSLASVAYQINALANNVLQLLDIQASQLRRMESSINHISQTVDIHKEKVARREIGILTTNKNTSRTHKIIAPANMERPVRYIRKPIDYTVLDDVGHGVKWLKAKHGNNQPARTGTLSRTN”, the protein production entry is “failed”.
Consider “AEPTLYGRYENIKVLEIGQTFKAKMDTGALTASLSAKDIELFQRDGDDWVRFRLATKGADDKVYEHKVSRISKIKGRAEGDDEDDEGINPAKRPVVDLELCLGNKKRTVEVNLVDRSHFNFPLLIGAKALREFGAAINPARRYTADEP”, for which the protein production result is reported as “failed”.
Take “AFAVLTTAGSRPVLSFLWVEPAARRQGLARELLMALAQQFPGIGTSVTVPETFTPLFAAAGYTPLSLQQYEMTMDLADAKSA”: the protein production entry is reported as “failed”.
In the case of “AHSSLGAPVHLWGTEEVAAWLEHLSLCEYKDIFTRHDIRGSELLHLERRDLKDLGVTKVGHMKRILCGIKELSRSAPAVEA” it was “failed”.
With “AIAAADISESSGADCKGDPRNSAKLDADYPLRVLYCGVCSLPTEYCEYMPDVAKCRQWLEKNFPNEFAKLTVENSPKQEAGISEGQGTAGEEEEKKKQKRGGRGQIKQKKKTVPQKVTIAKIPRAKKKYVTRVCGLATFEIDLKEAQRFFAQKFSCGASVTGEDEIIIQGDFTDDIIDVIQEKWPEVDDDSIEDLGEVKK”, the protein production result is reported as “failed”.
In the case of “AIAAELGLNEHHQNEVINYMRFARSKRGLRLKTVDSCFQDLKESRLVEDTFTIDEVSEVLNGLQAVVHSEVESELINTAYTNVLLLRQLFAQAEKWYLKLQTDISELENQELLEQVAEFEKAEITSSNKKPILDVTKPKLAPLNEGGTAELLNEEILRLQEENEKLKSRLKTIEIQATNALDEKSKLEKALQDLQLDQGNQKDFIKAQDLSNLENTVAALKSEFQKTLNDKTENQKSLEENLATAKHDLLRVREQLHMAEKELEKKFQQTAAYRNMKEILTKKNDQIKDLRKRLAQYEPED” it was “failed”; in that of “AIAAEMKTYSHRTMPSACTLVMCSSVESGLPGRDGRDGREGPRGEKGDPGLPGAAGQAGMPGQAGPVGPKGDNGSVGEPGPKGDTGPS”, “failed”.
To “AIAEEDEFIGEKTFQRYCAEFIKHSQQIGDSWEWRPSKDCSDGYMCKIHFQIKNGSVMSHLGASTHGQTCLPMEEAFELPLDDCEVIETAAASEVIKYEYHVLYSCSYQVPVLYFRASFLDGRPLTLKDIWEGVHECYKMRLLQGPWDTITQQEHPILGQPFFVLHPCKTNEFMTPVLKNSQKINKNVNYITSWLSIVGPVVGLNLPLSYAKATSQDERNVP” belongs “failed”; to “AIAITGETEPACVEDASQLAEQRNGAPVMEAGCAAVPVEANATKRGYWRQRTLHSWFIGRKPQRTCIAVDIDEVLAFFVPELCAFHNKRYGTRLQATDFHSYRFAEVWGGTDTDAIRKVHEFFRTPAFQELQPIPGAKQVLQSRLARFRFVVVTSRQLVIEQETRAWLDKHFSGIFEAIYLGNQWALHPNGEHGTGVGSAAQEPQRLFANRRRKSQVCKACGAAVLIDDLPHNLLDCSENGVFGVLFDFQGQYGWSKSPAFESKDIAVVHSWEAVGELLDRL”, “failed”; to “AIANSSVSTHGTGDCPVNCTKSEDFAPSKLGTKEYWDGAYKRELQTYKDIGDVGEIWFGEESMHRVIRWMEAQNISENAAILDIGTGNGMFLVELARHGFSNLTGIDYSKAALELTTNILVEEGLKNINIQVEDFLNPSTELKGFDVCIDKGTFDAISLNPEDREEAKKHYVTSLRAVMRPNGFFIITSCNWTKEQLLEIFKPGFELVRELPTPNFQFGGVTGNSVTALVFKQTD”, “failed”.
